The source of these data is patent US20170165339A1 (IMMATICS BIOTECHNOLOGIES, published 2017).

One assay addresses HLA-A*02 (human). As to the kind of experiment: UV peptide-exchange ELISA, yield grade.
ILGEVLAQL [ILGEVLAQL (SEQ ID NO: 132)] came in with a peptide exchange yield of 50 to 75%. The same measure, in the same setting: as for AILAHLNTV [AILAHLNTV (SEQ ID NO: 229)], the figure is ≥ 75%; as for GLAVPTPSV [GLAVPTPSV (SEQ ID NO: 134)], 50 to 75%; as for FLLPTGAEA [FLLPTGAEA (SEQ ID NO: 139)], 20 to 49%. Molecule KMNESTRSV [KMNESTRSV (SEQ ID NO: 239)] had a peptide exchange yield of 20 to 49%.

ALLPRLHQL [ALLPRLHQL (SEQ ID NO: 133)]: the peptide exchange yield is ≥ 75%. In turn, KLQGKLPEL [KLQGKLPEL (SEQ ID NO: 254)] came in with a peptide exchange yield of 20 to 49%. Still for that read-out and setting: next, STIAILNSV [STIAILNSV (SEQ ID NO: 236)]: 50 to 75%. In the case of YLDRFLAGV [YLDRFLAGV (SEQ ID NO: 248)], the peptide exchange yield was ≥ 75%. The same measure, in the same setting: next, FMADDIFSV [FMADDIFSV (SEQ ID NO: 243)]: 50 to 75%; LLSERFINV [LLSERFINV (SEQ ID NO: 258)]: ≥ 75%. On the same count and under the same terms, as for YLWATIQRI [YLWATIQRI (SEQ ID NO: 145)], the figure is 50 to 75%; as for RLQDILWFL [RLQDILWFL (SEQ ID NO: 129)], ≥ 75%; as for ILNTHITEL [ILNTHITEL (SEQ ID NO: 149)], 50 to 75%.

Turning to ALLAKILQI [ALLAKILQI (SEQ ID NO: 138)], the peptide exchange yield is 50 to 75%. The molecule KIFPAALQLV [KIFPAALQLV (SEQ ID NO: 232)] gave a peptide exchange yield of 50 to 75%. The same measure, in the same setting: as for KLQNIMMLL [KLQNIMMLL (SEQ ID NO: 230)], the figure is 20 to 49%; as for ILLEKILSL [ILLEKILSL (SEQ ID NO: 260)], 50 to 75%; as for TLTSLLAQA [TLTSLLAQA (SEQ ID NO: 157)], 50 to 75%. Still for that read-out and setting: next, KIIDFLSAL [KIIDFLSAL (SEQ ID NO: 235)]: 50 to 75%; VLLSEQGDVKL [VLLSEQGDVKL (SEQ ID NO: 263)]: 20 to 49%. HLSTIIHEA [HLSTIIHEA (SEQ ID NO: 135)]: the peptide exchange yield lay within 50 to 75%. The same measure, in the same setting: as for FLFGGVLMTL [FLFGGVLMTL (SEQ ID NO: 136)], the figure is 20 to 49%. The same measure, in the same setting: next, MLAGIAITV [MLAGIAITV (SEQ ID NO: 148)]: 50 to 75%; FLDKVLVAA [FLDKVLVAA (SEQ ID NO: 141)]: 50 to 75%; SLLDLPLSL [SLLDLPLSL (SEQ ID NO: 245)]: ≥ 75%.

ALLAFFPGL [ALLAFFPGL (SEQ ID NO: 144)] returned a peptide exchange yield of 50 to 75%. Still for that read-out and setting: next, NTCPYVHNI [NTCPYVHNI (SEQ ID NO: 265)]: 50 to 75%; ALYEGYATV [ALYEGYATV (SEQ ID NO: 247)]: 50 to 75%; HLFDAFVSV [HLFDAFVSV (SEQ ID NO: 233)]: 50 to 75%.

GLCERLVSL [GLCERLVSL (SEQ ID NO: 249)]: the peptide exchange yield was ≥ 75%. In the case of TVSDVLNSV [TVSDVLNSV (SEQ ID NO: 246)], the peptide exchange yield fell in the range of 50 to 75%. Same read-out and setting: next, GLYERPTAA [GLYERPTAA (SEQ ID NO: 238)]: 20 to 49%; VTSNSGILGV [VTSNSGILGV (SEQ ID NO: 131)]: 50 to 75%; ALHFSEDEI [ALHFSEDEI (SEQ ID NO: 146)]: 20 to 49%. In turn, ALSVLRLAL [ALSVLRLAL (SEQ ID NO: 251)] displayed a peptide exchange yield of 50 to 75%.

As for MMVGDLLEV [MMVGDLLEV (SEQ ID NO: 152)], the peptide exchange yield lay within 50 to 75%.

Regarding YLMDDTVEI [YLMDDTVEI (SEQ ID NO: 147)], the peptide exchange yield was ≥ 75%. MLDKYSHYL [MLDKYSHYL (SEQ ID NO: 231)] gave a peptide exchange yield of 50 to 75%.

For ALAELIDNSL [ALAELIDNSL (SEQ ID NO: 253)], the peptide exchange yield lay in the range of 50 to 75%. Molecule LLSPHNPAL [LLSPHNPAL (SEQ ID NO: 234)] gave a peptide exchange yield of 50 to 75%.

As to ILVEGISTV [ILVEGISTV (SEQ ID NO: 142)], the peptide exchange yield lay in the range of 50 to 75%.

Molecule WLYGEDHQI [WLYGEDHQI (SEQ ID NO: 242)] gave a peptide exchange yield of 20 to 49%.

In the case of SLLHFTENL [SLLHFTENL (SEQ ID NO: 255)], the peptide exchange yield lay within 50 to 75%. The same measure, in the same setting: as for RLMEICESL [RLMEICESL (SEQ ID NO: 252)], the figure is 50 to 75%; as for SVLDSTAKV [SVLDSTAKV (SEQ ID NO: 151)], 20 to 49%; as for YMGEEKLIASV [YMGEEKLIASV (SEQ ID NO: 240)], 50 to 75%. As to LLNPVVEFV [LLNPVVEFV (SEQ ID NO: 155)], the peptide exchange yield was in the range of 50 to 75%. Same read-out and setting: as for GLYTDPCGV [GLYTDPCGV (SEQ ID NO: 257)], the figure is ≥ 75%; as for RLLGTEFQV [RLLGTEFQV (SEQ ID NO: 154)], 50 to 75%.

Molecule YAIGLVMRL [YAIGLVMRL (SEQ ID NO: 266)] returned a peptide exchange yield of 50 to 75%.

As to FMVDKAIYL [FMVDKAIYL (SEQ ID NO: 262)], the peptide exchange yield lay within 50 to 75%. The same measure, in the same setting: next, VLYDRPLKI [VLYDRPLKI (SEQ ID NO: 150)]: 50 to 75%; KTIQQLETV [KTIQQLETV (SEQ ID NO: 241)]: 20 to 49%. Same read-out and setting: as for SLLGGTFVGI [SLLGGTFVGI (SEQ ID NO: 130)], the figure is 50 to 75%. For FISERVEVV [FISERVEVV (SEQ ID NO: 153)], the peptide exchange yield was ≥ 75%. In turn, QLQDRVYAL [QLQDRVYAL (SEQ ID NO: 261)] showed a peptide exchange yield of 50 to 75%. Still for that read-out and setting: next, ILGDLSHLL [ILGDLSHLL (SEQ ID NO: 156)]: 50 to 75%; ALAPHLDDA [ALAPHLDDA (SEQ ID NO: 237)]: 50 to 75%; ALLPELREV [ALLPELREV (SEQ ID NO: 143)]: 50 to 75%. In the case of YLLEKNRVV [YLLEKNRVV (SEQ ID NO: 244)], the peptide exchange yield is 20 to 49%.

With SLGEEQFSV [SLGEEQFSV (SEQ ID NO: 256)], the peptide exchange yield lay in the range of 20 to 49%. On the same count and under the same terms, next, ILLPRIIEA [ILLPRIIEA (SEQ ID NO: 259)]: 50 to 75%; SLAPATPEV [SLAPATPEV (SEQ ID NO: 250)]: 50 to 75%. KLFPQETLFL [KLFPQETLFL (SEQ ID NO: 264)] yielded a peptide exchange yield of 50 to 75%.

The target of the next assay is HLA-A*02:01 (human). As to the kind of experiment: pMHC used for negative control stimulation.
YLLPAIVHI [DDX5-001]: the binding result is “binds”.
